How the values were obtained:
Test in all cases: EMSA
Details in all cases: 10 mM Tris pH 7.5, 100 mM KCl (Fig. 3 legend; not in Methods), 1 mM DTT, 2.5% glycerol, 20 mM MgCl2, 500 ng poly(dI-dC), 0.05% NP-40; 30 nM DNA; 10 min room …
[1] = target: T1, MBP-NnaR (Mycobacterium smegmatis mc2 155) (UniProt A0QPK7)
T1 sequence: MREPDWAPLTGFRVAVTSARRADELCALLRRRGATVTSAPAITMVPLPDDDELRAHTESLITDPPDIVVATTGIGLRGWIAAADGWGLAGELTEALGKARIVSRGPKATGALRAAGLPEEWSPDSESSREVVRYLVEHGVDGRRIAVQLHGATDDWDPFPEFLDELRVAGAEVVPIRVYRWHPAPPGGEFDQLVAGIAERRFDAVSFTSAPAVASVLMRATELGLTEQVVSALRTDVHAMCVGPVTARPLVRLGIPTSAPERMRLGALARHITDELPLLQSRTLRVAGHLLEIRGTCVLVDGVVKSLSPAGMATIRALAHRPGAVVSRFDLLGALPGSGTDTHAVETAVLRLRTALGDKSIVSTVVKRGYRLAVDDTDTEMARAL

[2] = target: T2, His-GlnR (Mycobacterium smegmatis mc2 155) (UniProt A0R4C4)
T2 sequence: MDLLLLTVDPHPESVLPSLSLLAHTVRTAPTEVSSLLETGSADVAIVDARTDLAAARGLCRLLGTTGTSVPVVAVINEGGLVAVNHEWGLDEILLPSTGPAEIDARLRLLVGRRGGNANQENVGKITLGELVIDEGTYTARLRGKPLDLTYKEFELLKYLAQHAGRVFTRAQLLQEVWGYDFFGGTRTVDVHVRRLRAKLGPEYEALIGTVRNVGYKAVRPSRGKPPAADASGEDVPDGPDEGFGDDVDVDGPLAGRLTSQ

[3] = target: T3, MBP-NnaR;His-GlnR (Mycobacterium smegmatis mc2 155;Mycobacterium smegmatis mc2 155) (UniProt A0QPK7+A0R4C4)
T3 sequence 1: T1 sequence
T3 sequence 2: T2 sequence

GACCCCTGGTGACCGCGTAACGGCTTTCTCACAGGTGCCCGCCGATCCAGGTGAGCGGAATTTCACGGCCGGGTCATCGCGCGCAGTGTCGGGGCAATAATCGCTTTCTAGCGTGCTCGCATG (double strand) [msmeg_0433 promoter]
binding [1]: binds
binding [2]: binds more weakly

CGTGTGGCCCTTTCGTTCGATCCCGAGCACAGAGATTAACTGTACTGACCACGCAAGGCGAGACGTCGGCACTCGTGACGTCCTCACACGGTTTTCACAACGCACTCACAAGACATGTGAGCAGCACGTAGCGGACCCGGTACGCCTGGGCAATGGTGCGGCAACGGGGTTCTCCGACGCTGAACGCATG (double strand) [msmeg_5765 promoter]
binding [1]: binds
binding [2]: binds more weakly

GCAGCTTGGACCACCTATTTCCACGCCATGAACGACCTCGCCCGAAAATTGATGAGCGCGTTCGCCCTCGGGTTGAGGTTGCCCGCCGACTACTTCGTCGACACCATCGA (double strand) [msmeg_4008 promoter]
binding [3]: binds
binding [1]: no binding
binding [2]: no binding

ATCTGCATCATCTCGCGACTTTGGTCAGCTGTCGCCCTGGCGCGCCGAGGCACGGCAGGTTTCGCACGCCCAGGCATCTCACAGCCGACGCTGAGCTGATGTGCGCAGATGGCAACACCGATGCATAGGTCAAGTCGCCGAACCGCAATCTGGGCGCGACACGGTCTAGGGAACTGTCCATCGGGTCCATCGGAAGGTTGCACCCAATG (double strand) [msmeg_5360 promoter]
binding [3]: binds
binding [1]: no binding
binding [2]: no binding

CATAGGGCGAGGCTAAGAACCCGATATTGCCGCGATGTCGCGCTGTGTGAAGCCCCCATCACGGTGTGCTCACGTCTTCGGCAACGCACATGTGAGGTCCCCGACCGGTGAGCTCTCCGGACCACAGTCAGGCCACAACCGCC (double strand) [msmeg_0427 promoter]
binding [1]: binds

— publication PMC6277429
